US20040091578A1 (priority 2001, published 2004)

Key:
[1] = molecular target: castor seed 2S protein (Ricinus communis, UniProt P01089); assay type: biochemical; conditions: 20 min at 25° C.
[2] = system: atopic dogs; assay: Skin tests with milk and BLG in atopic dogs (Example 39); assay type: in vivo; conditions: dog model skin tests
Protocol: Newborn pups from two litters of the atopic dog colony, designated CGB and GCB, were injected subcutaneously at day 1 with 1 μg each of wheat, cows milk and beef extract (Miles, Inc., Elkhart, Ind., described in Example 33) in 0.2 ml of alum. A third litter, designated CBB, was injected with a soy extract (Miles, Inc. described in Example 33) in addition to these same allergens. Procedures for the sensitization, testing and maintenance of the pups were substantially the same as those described in Example 36.
About 3 min prior to skin testing, each dog received 4-5 ml of filtered 0.5% Evans blue dye solution (equivalent to 0.2 ml of 0.5% Evans blue dye per kg of weight) through a cephalic vein to enhance assessment of the cutaneous IgE antibodies. Serial dilutions of 100 μl of each sample were injected intradermally on the abdominal skin to establish the titer. After 15-20 min, the allergic response was determined by measuring the size of the blue wheal reaction (maximum length and width). An appropriate negative control (buffer diluted in physiological saline) was included for each animal tested. Repeated tests with thioredoxin, NTR, NADPH and pepsin alone were consistently negative.

[3] = molecular target: T1, pepsin (Sus scrofa, UniProt P00791); assay: Pepsin assay in simulated gastric fluid (Example 39); assay type: in vitro ADME, porcine
T1 construct: purchased Sigma
Protocol: BLG, 640 μg, or milk, 1 mg protein (i.e., about 30 μl), was incubated with or without the thioredoxin system (NTS) at either 4° C. […] The BLG, 320 μg, or milk, 500 μg protein, was then treated in 200 μl of simulated gastric fluid (SGF) as described by Astwood, J. D. et al. (1996), “Stability of food allergens to digestion in vitro”, Nature Biotechnol. 14:1269-1273. SGF consists of 0.32% pepsin (w/v) and 30 mM NaCl adjusted at pH 1.2 with HCl (Board of Trustees (ed.) 1995, Simulated Gastric Fluid, TS., pp. 2053 in the United States Pharmacopeia 23, The National Formulary 18. United States Pharmacopeial Convention, Inc. Rockville, Md.). The reaction mixture was incubated at 37° C. and stopped by adding 0.375-fold volume of 160 mM Na2CO3 (ca. pH 7) after 0, 0.25, 1, 2, 4, 8, 15, 30 and 60 min incubation. The protein mixture was then subjected to SDS-PAGE (15% gels) and stained for protein with Coomassie blue as described below. As indicated, the allergenicity of the digested samples was determined by skin test analysis.

[4] = system: trypsin; assay: Trypsin proteolysis of purified milk allergens; assay type: biochemical; conditions: 10 μg NTS reduced protein, 2 μg trypsin
Protocol: The analysis of the reduction was done using the mBBr/SDS-PAGE techniques. Further in this study, when 10 μg of an NTS reduced purified milk allergen protein, β-lactoglobulin (Sigma Chemical Co.), was treated with 2 μg of trypsin, proteolysis was 100% as compared with only 50% for the identically trypsin treated oxidized β-lactoglobulin. […] However, 10 μg of purified α-lactalbumin reduced by the NTS was proteolyzed 80% by trypsin. Also 10 μg of α-lactalbumin reduced by 0.8 μg of thioredoxin and 0.5 mM DTT was 100% proteolyzed by 2 μg of trypsin.

[5] = Redox stability of reduced BLG in air; assay type: physicochemical; conditions: NTS-treated raw milk without buffer, stored at 4° C. in air
Protocol: BLG is known to contain two disulfides, both intramolecular (See, FIG. 8): one clearly accessible on the surface and located close to the C-terminus (Cys 66-Cys 160) and the other, close to the core, located between two β-sheets (Cys 106-Cys 119 or possibly Cys 106-Cys 121). Sequence analysis confirmed that the exposed disulfide (Cys 66-Cys 160) was reduced at 55° C. […] Differential reduction of BLG could also be achieved by altering pH. […] Furthermore, the BLG in this treated milk without buffer remained reduced for 2 days when stored at 4° C. in air (data not shown).
Two sulfhydryl (SH) groups can often spontaneously react to form an S—S bond in the presence of oxygen. […] For example, the reduced form of β-lactoglobulin (BLG), a major allergen of cow's milk, is fully reoxidized after 3 days in air whether reduced by either NTS or DTT. This invention provides for the stabilization of proteins, including allergenic proteins reduced by the NTS at 4° C. and by DTT at 55° C. Other physiological reductants such as lipoic acid may also be used to initially reduce the proteins. In general, the reduction reactions were conducted as described in previous examples. The proteins are stabilized in that the SH groups of these proteins and allergens are blocked and prevented from reoxidizing to form S—S bonds. […]

[6] = molecular target: T1, pepsin; assay: Stability to pepsin in simulated gastric fluid (Example 44); assay type: in vitro ADME, porcine; conditions: 37° C., 0.32% pepsin
Protocol: Assay for Stability to Pepsin. BLG (1 mg/ml) or milk (15 mg/ml) were mixed with simulated gastric fluid (SGF) to give 0.32% pepsin and incubated for the indicated times at 37° C. as described in Example 39 and Astwood et al., 1996, herein incorporated by reference. The digested proteins were analyzed by reducing SDS-PACE (10 to 20% gradient gel) also as described in Laemmli, 1970, herein incorporated by reference.

[7] = system: trypsin; conditions: soy flour, 30 min at 120° C. (Friedman et al., 1991); cited from earlier work
[8] = system: wheat protease preparation; assay: Susceptibility to proteolysis by a plant protease preparation, SDS-PAGE densitometry; assay type: biochemical
Protocol: The endosperm (10-15 g fresh weight) isolated from 5-day germinated wheat seeds by excising the roots and shoots was extracted for 30 minutes at 4° C. with 5 volumes of 200 mM sodium acetate, pH 4.6, containing 10 mM β-mercaptoenthanol. The homogenate was centrifuged for 20 minutes at 48,000 g, 4° C. The pellet was discarded and the supernatant fluid was fractionated with 30-70% ammonium sulfate. This fraction, which represented the protease preparation, was resuspended in a minimum volume of 20 mM sodium acetate, pH 4.6, containing 10 mM β-mercaptoenthanol, and dialyzed against this buffer overnight at 4° C.
Unless indicated, the reduction of the trypsin inhibitors (0.4 mg/ml) was carried out in 0.1 ml of 20 mM sodium phosphate buffer, pH 7.9 containing 10 mM EDTA at 30° C. for 2 hours. The concentrations of thioredoxin, NTR, and NADPH were 0.024 mg/ml, 0.02 mg/ml, and 0.25 mM, respectively. […] Following reduction, aliquots of the inhibitor mixture were withdrawn either for determination of trypsin inhibitory activity or proteolytic susceptibility. In the subtilisin tests, the inhibitor mixture (50 μl) was directly mixed with subtilisin and incubated at room temperature for 1 hour. With the wheat protease preparation, the pH of the inhibitor mixture (50 μl) was first adjusted to 4.7 by mixing with 35 μl of 200 mM sodium acetate, pH 4.6; 10 μl of the wheat protease preparation was then added and incubation was continued for 2 hours at 37° C. To stop digestion with subtilisin, 2 μl of 100 mM phenylmethylsulfonyl fluoride (PMSF) and 10 μl of 10% SDS were added to the digestion mixture. With the plant protease preparation, digestion was stopped by adding an equal volume of SDS sample buffer [0.125 M Tris-HCl, pH 6.8, 4% (w/v) SDS, 20% (v/v) glycerol, 10% (v/v) β-mercaptoethanol, and 0.02% (w/v) bromophenol blue]. Proteolytic products were analyzed by electrophoresis with 12% or 16% SDS polyacrylamide slab gels (Laemmli, 1970). The dried slab gels were scanned with a laser densitometer (Pharmacia-LKB UltraScan XL) and the peak area of the KTI or BBTI protein band was obtained by integration with a Pharmacia GelScan XL software program.
To test whether the reduced forms of KTI and BBTI show decreased stability to proteases other than trypsin, both the reduced and oxidized forms of KTI and BBTI were incubated with a wheat protease preparation or with subtilisin and the proteolytic products were analyzed by SDS-PAGE. The extent of proteolysis was determined by measuring the abundance of intact protein on SDS gels by laser densitometer. When tested with a protease preparation from 5-day germinated wheat seeds, the oxidized form of the Kunitz inhibitor was almost completely resistant to digestion whereas the thioredoxin-reduced form was susceptible to protease. […] The nature of the proteolytic reaction was not investigated, but it is noted that peptide products were not detected on SDS gels.

[9] = system: trypsin; assay: Trypsin inhibition assay; assay type: biochemical
Protocol: Unless indicated, the reduction of the trypsin inhibitors (0.4 mg/ml) was carried out in 0.1 ml of 20 mM sodium phosphate buffer, pH 7.9 containing 10 mM EDTA at 30° C. for 2 hours. The concentrations of thioredoxin, NTR, and NADPH were 0.024 mg/ml, 0.02 mg/ml, and 0.25 mM, respectively. […] Following reduction, aliquots of the inhibitor mixture were withdrawn either for determination of trypsin inhibitory activity or proteolytic susceptibility. In the subtilisin tests, the inhibitor mixture (50 μl) was directly mixed with subtilisin and incubated at room temperature for 1 hour. […] Proteolytic products were analyzed by electrophoresis with 12% or 16% SDS polyacrylamide slab gels (Laemmli, 1970). […]
Thioredoxin and NTR were assayed as previously described by Florencio et al. (1988). Trypsin activity was measured in 50 mM Tris-HCl, pH 7.9, by following the increase in absorbance at 253 nm with N-benzoyl-L-arginine ethyl ester as substrate (Mundy et al., 1984) or by the release of azo dye into the trichloroacetic acid (TCA)-soluble fraction from azocasein substrate (see below). For trypsin inhibition assays, trypsin (5 to 10 μg) was preincubated with appropriate amounts of KTI or BBTI for 5 minutes at room temperature in 50 mM Tris-HCl, pH 7.9 and proteolytic activity was then determined. […]

[10] = molecular target: T2, glutaredoxin (Escherichia coli, UniProt P68688); assay: Reduction by glutaredoxin, mBBr/SDS-PAGE with densitometric scanning; assay type: biochemical; conditions: E. coli glutaredoxin, glutathione reductase, NADPH
T2 sequence (P68688 1-85): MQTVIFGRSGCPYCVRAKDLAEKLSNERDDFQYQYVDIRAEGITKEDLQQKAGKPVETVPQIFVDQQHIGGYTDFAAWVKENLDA
Protocol: Direct reduction of the proteins under study was determined by a modification of the method of Crawford et al. (Crawford, N. A. et al. (1989), Arch. Biochem. Biophys. 271:223-239). The reaction was carried out in 100 mM potassium phosphate buffer, pH 7.1, containing 10 mM EDTA and 16% glycerol in a final volume of 0.1 ml. As indicated, 0.7 μg (0.1 μM) NTR and 1 μg (0.8 μM) thioredoxin (both routinely from E. coli were added to 70 μl of the buffer solution containing 1 mM NADPH and 10 μg (2 to 17 μM) of target protein. When thioredoxin was reduced by dithiothreitol (DTT, 0.5 mM), NADPH and NTR were omitted. Assays with reduced glutathione were performed similarly, but at a final concentration of 1 mM. After incubation for 20 min, 100 nmoles of mBBr were added and the reaction was continued for another 15 min. To stop the reaction and derivatize excess mBBr, 10 μl of 10% SDS and 10 μl of 100 mM β-mercaptoethanol were added and the samples were then applied to the gels. […]
This ability was tested, using glutaredoxin from E. coli and the seed proteins currently under study. Reduction activity was monitored by the mBBr/SDS polyacrylamide gel electrophoresis procedure coupled with densitometric scanning.

T1 sequence (P00791 60-385): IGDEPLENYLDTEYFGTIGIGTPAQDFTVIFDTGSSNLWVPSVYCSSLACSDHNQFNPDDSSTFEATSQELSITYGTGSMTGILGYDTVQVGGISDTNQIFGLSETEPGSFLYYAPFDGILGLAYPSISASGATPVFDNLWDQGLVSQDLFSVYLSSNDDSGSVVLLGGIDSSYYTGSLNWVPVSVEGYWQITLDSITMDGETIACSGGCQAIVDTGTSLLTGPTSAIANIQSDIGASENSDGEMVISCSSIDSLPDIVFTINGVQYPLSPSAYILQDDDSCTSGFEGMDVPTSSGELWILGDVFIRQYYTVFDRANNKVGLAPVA
Chain of castor seed 2S protein (P01089 194-258 limits assumed): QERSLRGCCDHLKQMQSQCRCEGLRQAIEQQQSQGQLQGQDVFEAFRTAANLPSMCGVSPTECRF
Chain of castor seed 2S protein (P01089 157-190 partner limits assumed): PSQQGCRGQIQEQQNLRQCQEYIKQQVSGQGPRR

Which “Relative Reduction (%)” value [1] does the source give for `O[C@H](CS)[C@H](O)CS` (racemic) [DTT, dithiothreitol] here?
The value was 67%.

Which results are given for “β-lactoglobulin: bovine β-lactoglobulin, major milk allergen; untreated (oxidized) control in Tables XVIII, XXI-XXIV”?
share of the total wheal-inducing activity of milk [2]: 80%; time resisting digestion in SGF ([3]; oxidized BLG in milk): at least 60 min; time to digestion in SGF ([3]; thioredoxin-reduced BLG in milk): ≤ 60 s; proteolysis by trypsin [4]: 100%; time BLG remained reduced [5]: 2 days; half-life in SGF [6]: about 2 hours

B1: Soybean Kunitz: Kunitz soybean trypsin inhibitor (protein, UniProt P01070 25-205, looked up)
Trypsin inhibitor A: DFVLDNEGNPLENGGTYYILSDITAFGGIRAAPTGNERCPLTVVQSRNELDKGIGTIISSPYRIRFIAEGHPLSLKFDSFAVIMLCVGIPTEWSVVEDLPEGPAVKIGENKDAMDGWFRLERVSDDEFNNYKLVFCPQQAEDDKCGDIGISIDHDDGTRRLVVSKNKPLVVQFQKLDKESL
For B1, which “original trypsin inhibitor activity remaining” value [7] is on record?
Its value is “about 20%”.

What about the “Relative Abundance” value ([8]; Protease after E. coli NTS) of the same molecule?
Its value is 22.1.

And the “Relative Abundance” value ([8]; Protease after NTS minus NADPH)?
The value was 97.7.

And the “Relative Abundance” value ([8]; Protease after NTS minus NTR)?
The value was 97.9.

And the “Relative Abundance” value ([8]; Protease after NTS minus thioredoxin)?
The value was 90.2.

And the “Relative Abundance” value ([8]; Protease, No reduction system, no protease = 100)?
Its value is 97.9.

And the degraded ([8]; all components of NTS present)?
Its degraded is “about 80%”.

And the “increase in trypsin activity effected by the NADP/thioredoxin system” value [9]?
Its value is 3 fold.

And the “percentage reduction by glutaredoxin relative to E. coli thioredoxin” value [10]?
Its value is “ineffective”.
